58 substances from the supplement of paper PMC12042874 can be followed below.

± gives the uncertainty stated by the source.

The nature of this series: amyloid nucleation score (Sup35N fusion, yeast selection) (log enrichment); library NNK1; higher = more nucleation; inactive = no reads after selection. In outline:
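After 24 hours of induction with 100 μM copper sulfate, psi-negative yeast expressing peptides of 20 random codons fused to Sup35N were grown for 7 days at 30°C on medium lacking adenine and uracil. Input and output plasmid inserts were sequenced with Illumina, and sequences with under 100 input reads were discarded. Scores for nucleation are the DiMSum log enrichment of output over input reads, centred on the mode score of non-aggregating sequences.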
Turning to LLDKISNRPTQYGTTVPPVP, the amyloid nucleation score stood at 0.573 ± 0.45.
As to MWVLRPCCHFAVCRGIKVSR, the amyloid nucleation score was -0.046 ± 0.53.
With QVRGSASYSVHWINELFFKQ the figure was 1.64 ± 0.32; with CSDKKLGEWSASWNCNRDRM, -0.171 ± 1.7; with LWRRWNCFT, “inactive”.
With VRAPRSVWRSFAAA, the amyloid nucleation score is -0.107 ± 0.59.
Take VCAQFSRGRIFTAIVIGWTQ: the amyloid nucleation score stood at 0.857 ± 0.64.
With KRTAHRMVRSCSLWKVRYRQ the figure was 0.462 ± 1.2; with GDAMASFPAACCGTRCCGFV, 0.41 ± 0.4.
The substance SLRLARNGYIYAICRFLCYS yielded an amyloid nucleation score of -1.15 ± 2.7.
The value for IRVTAEICYLLKHTVMGRMR was 0.523 ± 0.34.
With ICIDCYQGC the figure was -0.721 ± 1.9; with SIVRTDDIARLSLMLGRRSV, -0.724 ± 0.56.
The substance SKTRVLM returned an amyloid nucleation score of -0.374 ± 0.41.
Turning to FWKGASINYS, the amyloid nucleation score entry is “inactive”.
With LCLGCGYGEETI the figure was 0.069 ± 0.37; with RGYQNSLFTGMRRSSGSWSI, 0.43 ± 0.77.
The value for MRTPGCVMF was -0.44 ± 0.93; that for CELSDSVNGNTFNMN was 2.18 ± 0.49; that for MVAIMQISMGSAVFLYAR was 4.24 ± 0.097.
The substance QPFTWVLQKNTRT had an amyloid nucleation score of 0.714 ± 0.58.
YKGNKCCVKMMACWGTGCLP came in with an amyloid nucleation score of 1.98 ± 0.37.
The value for LVLSWSWICFL was 7.39 ± 0.059.
For the substance YTHGG, the amyloid nucleation score entry is “inactive”.
The value for VNEIRT was -0.153 ± 1.2; that for LYTNSLRF was -0.419 ± 0.64.
Substance RYSQTKDLKVLLQHFFIYKF yielded an amyloid nucleation score of -1.23 ± 1.7.
For the substance WLINTPTHWVFVDIVWYWSK, the amyloid nucleation score worked out at 0.051 ± 0.84.
Consider LWLTFFSQ, for which the amyloid nucleation score worked out at 2.35 ± 0.11.
Turning to TSGWCSRLQIIGLYLNVLVC, the amyloid nucleation score came to 5.47 ± 0.06.
Take SDDHVTVYNRDARRSRSCCL: the amyloid nucleation score result was “inactive”.
With PIGLMGFRLSSICLSIRTLP the figure was -0.469 ± 0.65; with RFIYE, -0.543 ± 0.82; with VMTWHL, -0.73 ± 0.45.
Regarding SEFASLERSHSHLYMWEFSL, the amyloid nucleation score is 0.171 ± 0.63.
Take YGVRFGVFLSTCLNFSGEYR: the amyloid nucleation score was -0.178 ± 0.42.
The value for NCGVYIVYQKRLQAVGYCAN was -0.312 ± 0.3; that for DWRYPLAYPVFSIDSRMFD was -0.312 ± 0.46.
Substance VGIGLSFQTEQSVCTDLLYS registered an amyloid nucleation score of -0.203 ± 0.69.
The value for CRDNCCPLVVYW was 0.531 ± 0.33; that for NCTARMKVGFAGFSFTLWIA was 0.533 ± 0.56.
AVRTAFLAAHM displayed an amyloid nucleation score of -0.64 ± 0.98.
The value for GTIENFHGVTN was 0.413 ± 0.49; that for GPTATVPPRHTREFILFKYS was -0.593 ± 1.
Take RRRYGRWMLCCCVVWV: the amyloid nucleation score is -0.147 ± 0.37.
With TKVFGRYLVVSGRFCIIEKK the figure was -0.371 ± 0.38; with RHRDLGWRVIRWRAFMTSLW, -1.31 ± 2.1; with FISNVWPYGESRFEESNPCL, 0.094 ± 0.52.
In turn, AGRSNF returned an amyloid nucleation score of -0.062 ± 1.2.
The value for HFVASDYHNVGSA was “inactive”; that for CCNGRLIIGNSNGNESYLSK was -0.384 ± 0.37.
The value for LYMICGVYCLDSGIRTMRTF was 5.51 ± 0.067; that for YQLTQLGLLS was 0.025 ± 0.49; that for RRRRSDKDVYPFQSFMFNVV was 0.476 ± 0.3.
The value for RCYSVRCTFQVDYARIHANE was 1.99 ± 0.17; that for FMPMNVSNKTSELRYFCNGP was 0.417 ± 0.74; that for VDRCGFGVFATVGMSCMDSF was 0.918 ± 0.45.
Turning to HSAGVVDALRCYNFYV, the amyloid nucleation score is -0.102 ± 0.39.
